Results from PMC9583076.

Target: Individual alanine mutations of these three residues (HTR2B S455, S456 and S457)
Assay: FRET or BRET

N-terminal Venus-tagged β-arrestin-1, sequence (P49407 whole entry): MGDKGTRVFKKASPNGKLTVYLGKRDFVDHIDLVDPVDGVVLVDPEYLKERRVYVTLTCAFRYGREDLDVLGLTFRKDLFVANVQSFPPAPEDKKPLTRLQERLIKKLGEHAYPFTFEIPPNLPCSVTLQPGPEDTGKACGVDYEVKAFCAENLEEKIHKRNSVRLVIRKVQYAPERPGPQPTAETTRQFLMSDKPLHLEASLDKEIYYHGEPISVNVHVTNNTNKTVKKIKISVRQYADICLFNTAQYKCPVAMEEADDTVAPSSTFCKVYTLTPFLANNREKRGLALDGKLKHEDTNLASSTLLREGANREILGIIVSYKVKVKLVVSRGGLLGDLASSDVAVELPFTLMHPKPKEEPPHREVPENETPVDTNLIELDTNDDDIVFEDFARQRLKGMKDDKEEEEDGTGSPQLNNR

Substance: N-terminal Venus-tagged β-arrestin-1 (from UniProt P49407 1-418) (natural protein)
- reduction of Emax of β-arrestin-1 recruitment against WT: 30 to 50%
